Results: paper PMC7736784
Like-named read-outs stand apart in the source and are kept apart here.

Assays:
[1] = molecular target: Sso7d-NanoLuc large fragment fusion
[2] = molecular target: Sso7d-NanoLuc large fragment fusion; remark: listed apart in the source

Row | Kd [1] [µM] | Kd [2] [µM] | Substance
1 | 190 |  | NS2-Stoffel fusion (NanoLuc small fragment NS2)
2 |  | 0.18 | NS3
